According to patent US20250154240A1 (CHIOME BIOSCIENCE, published 2025):

T1: human CXCL1 protein (human, UniProt P09341 35-107)
T1 construct: also called HuCXCL1
T1 sequence: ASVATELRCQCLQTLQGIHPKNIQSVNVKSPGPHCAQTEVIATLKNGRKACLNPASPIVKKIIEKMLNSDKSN


The binders below were run against T1, human CXCL1 protein (assay: antigen-immobilized ELISA).

binding result | Binder
binds | 028-8-12 VH1/VL (antibody, V domains shown, Amino acid-modified human antibody) VH: EVQLLESGGGLVQPGGSLRLSCAASGFTFSELSMSWVRQAPGKGLEWVSAISGSGGSTYYASSVKGRFTISRDNSKNTLYLQMNSLRAEDTAVYYCAREGGRLEPYYYYYAMDVWGQGTPVTVSS VL: DIQMTQSPSSLSASVGDRVTITCRASQSISDNLHWYQQKPGKAPKLLIYDASNLESGVPSRFSGSGSGTDFTLTINSLQPEDFATYYCQQYYSTPLTFGQGTKLEIK
binds | 028-8-12 VH/VL1 (antibody, V domains shown, Amino acid-modified human antibody) VH: EVQLLESGGGLVQPGGSLRLSCAASGFTFSELSMSWVRQAPGKGLEWVSAISGSGGSTYYADSVKGRFTISRDNSKNTLYLQMNSLRAEDTAVYYCAREGGRLEPYYYYYAMDVWGQGTPVTVSS VL: DIQMTQSPSSLSASVGDRVTITCRASQSISDNLHWYQQKPGKAPKLLIYDASNLESGVPSRFSGSGSGTDFTLTISSLQPEDFATYYCQQYYSTPLTFGQGTKLEIK
binds | 028-8-12 VH2/VL (antibody, V domains shown, Amino acid-modified human antibody) VH: not shown VL: DIQMTQSPSSLSASVGDRVTITCRASQSISDNLHWYQQKPGKAPKLLIYDASNLESGVPSRFSGSGSGTDFTLTINSLQPEDFATYYCQQYYSTPLTFGQGTKLEIK
binds | 028-8-12 VH2/VL1 (antibody, V domains shown, Amino acid-modified human antibody) VH: not shown VL: DIQMTQSPSSLSASVGDRVTITCRASQSISDNLHWYQQKPGKAPKLLIYDASNLESGVPSRFSGSGSGTDFTLTISSLQPEDFATYYCQQYYSTPLTFGQGTKLEIK
binds | mh5A-5E11 VH1/VL (antibody, V domains shown) VH: QVQLQQSGAELVRPGSSVKISCKASGYAFSDYWMNWVKQRPGQGLEWIGQIYPGSGDTNYNGKFKGKGTLTADKSSSTAYMQLNSLTSEDSAVYFCARERDYDVAMDYWGQGTSVTVSS VL: DIQMTQSPSSLSASLGGKVTITCKASQDINKYIAWFQHKPGKGPRLVIHYTSILQPGIPSRFSGVGSGRDYSFSIRNLEPEDIATYYCLQYDNLPWTFGGGTKLEIK
binds | mh5A-5E11 VH2/VL (antibody, V domains shown) VH: QVQLQQSGAELVRPGSSVKISCKASGYAFSDYWMNWVKQRPGQGLEWIGQIYPGEGDTNYNGKFKGKGTLTADKSSSTAYMQLNSLTSEDSAVYFCARERDYDVAMDYWGQGTSVTVSS VL: DIQMTQSPSSLSASLGGKVTITCKASQDINKYIAWFQHKPGKGPRLVIHYTSILQPGIPSRFSGVGSGRDYSFSIRNLEPEDIATYYCLQYDNLPWTFGGGTKLEIK
binds | mh5A-5E11 VH9/VL (antibody, V domains shown) VH: QVQLQQSGAELVRPGSSVKISCKASGYAFSDYWMNWVKQRPGQGLEWIGQIYPGEGDTNYNAKFKGKGTLTADKSSSTAYMQLNSLTSEDSAVYFCARERDYDVAMDYWGQGTSVTVSS VL: DIQMTQSPSSLSASLGGKVTITCKASQDINKYIAWFQHKPGKGPRLVIHYTSILQPGIPSRFSGVGSGRDYSFSIRNLEPEDIATYYCLQYDNLPWTFGGGTKLEIK
binds | mh5A-5E11 VH11/VL (antibody, V domains shown) VH: QVQLQQSGAELVRPGSSVKISCKASGYAFSDYWMNWVKQRPGQGLEWIGQIYPGDADTNYNAKFKGKGTLTADKSSSTAYMQLNSLTSEDSAVYFCARERDYDVAMDYWGQGTSVTVSS VL: DIQMTQSPSSLSASLGGKVTITCKASQDINKYIAWFQHKPGKGPRLVIHYTSILQPGIPSRFSGVGSGRDYSFSIRNLEPEDIATYYCLQYDNLPWTFGGGTKLEIK
binds | mh5A-5E11 VH6/VL (antibody, V domains shown) VH: QVQLQQSGAELVRPGSSVKISCKASGYAFSDYWMNWVKQRPGQGLEWIGQIYPGSGDTNYSGKFKGKGTLTADKSSSTAYMQLNSLTSEDSAVYFCARERDYDVAMDYWGQGTSVTVSS VL: DIQMTQSPSSLSASLGGKVTITCKASQDINKYIAWFQHKPGKGPRLVIHYTSILQPGIPSRFSGVGSGRDYSFSIRNLEPEDIATYYCLQYDNLPWTFGGGTKLEIK
binds | mh5A-5E11 VH10/VL (antibody, V domains shown) VH: QVQLQQSGAELVRPGSSVKISCKASGYAFSDYWMNWVKQRPGQGLEWIGQIYPGDADTNYSGKFKGKGTLTADKSSSTAYMQLNSLTSEDSAVYFCARERDYDVAMDYWGQGTSVTVSS VL: DIQMTQSPSSLSASLGGKVTITCKASQDINKYIAWFQHKPGKGPRLVIHYTSILQPGIPSRFSGVGSGRDYSFSIRNLEPEDIATYYCLQYDNLPWTFGGGTKLEIK
binds | mh5A-5E11 VH4/VL (antibody, V domains shown) VH: QVQLQQSGAELVRPGSSVKISCKASGYAFSDYWMNWVKQRPGQGLEWIGQIYPGDGDTNYSGKFKGKGTLTADKSSSTAYMQLNSLTSEDSAVYFCARERDYDVAMDYWGQGTSVTVSS VL: DIQMTQSPSSLSASLGGKVTITCKASQDINKYIAWFQHKPGKGPRLVIHYTSILQPGIPSRFSGVGSGRDYSFSIRNLEPEDIATYYCLQYDNLPWTFGGGTKLEIK
binds | mh5A-5E11 VH3/VL (antibody, V domains shown) VH: QVQLQQSGAELVRPGSSVKISCKASGYAFSDYWMNWVKQRPGQGLEWIGQIYPGDADTNYNGKFKGKGTLTADKSSSTAYMQLNSLTSEDSAVYFCARERDYDVAMDYWGQGTSVTVSS VL: DIQMTQSPSSLSASLGGKVTITCKASQDINKYIAWFQHKPGKGPRLVIHYTSILQPGIPSRFSGVGSGRDYSFSIRNLEPEDIATYYCLQYDNLPWTFGGGTKLEIK
binds | mh5A-5E11 VH5/VL (antibody, V domains shown) VH: QVQLQQSGAELVRPGSSVKISCKASGYAFSDYWMNWVKQRPGQGLEWIGQIYPGDGDTNYNAKFKGKGTLTADKSSSTAYMQLNSLTSEDSAVYFCARERDYDVAMDYWGQGTSVTVSS VL: DIQMTQSPSSLSASLGGKVTITCKASQDINKYIAWFQHKPGKGPRLVIHYTSILQPGIPSRFSGVGSGRDYSFSIRNLEPEDIATYYCLQYDNLPWTFGGGTKLEIK
binds | mh5A-5E11 VH8/VL (antibody, V domains shown) VH: QVQLQQSGAELVRPGSSVKISCKASGYAFSDYWMNWVKQRPGQGLEWIGQIYPGEGDTNYSGKFKGKGTLTADKSSSTAYMQLNSLTSEDSAVYFCARERDYDVAMDYWGQGTSVTVSS VL: DIQMTQSPSSLSASLGGKVTITCKASQDINKYIAWFQHKPGKGPRLVIHYTSILQPGIPSRFSGVGSGRDYSFSIRNLEPEDIATYYCLQYDNLPWTFGGGTKLEIK
binds | mh4A-2F7 VH/VL2 (antibody, V domains shown) VH: QVTLKESGPGILKPSQTLSLTCSFSGFSLSTSGMGVDWIRQPSGKGLEWLAHIWWDDDKYYNPSLKSQLTISKDTSRNQVFLKITSVDTADTATYYCARSYGYDMDYYAMDYWGQGTSVTVSS VL: DIQMTQSPSSLSASLGERVSLTCRASQEISGYLSWLQQKPDGTIKRLIYAASTLESGVPKRFSGSRSGSDYSLTISSLESEDFADYYCLQYASYPPWTFGGGTKLEIK
binds | mh4A-2F7 VH/VL3 (antibody, V domains shown) VH: QVTLKESGPGILKPSQTLSLTCSFSGFSLSTSGMGVDWIRQPSGKGLEWLAHIWWDDDKYYNPSLKSQLTISKDTSRNQVFLKITSVDTADTATYYCARSYGYDMDYYAMDYWGQGTSVTVSS VL: DIQMTQSPSSLSASLGERVSLTCRASQEISGYLSWLQQKPDGTIKRLIYAASTLDAGVPKRFSGSRSGSDYSLTISSLESEDFADYYCLQYASYPPWTFGGGTKLEIK

These binders were tested against T1, human CXCL1 protein (assay: antigen-immobilized ELISA, HuCXCL1 on the plate, absorbance (upper left panel)).

EC50 (read off the curve) | Binder
~0.02 µg/mL | Hu1A-7H10 VH1/VL1 (antibody, V domains shown) VH: QVTLKESGPVLVKPTETLTLTCTVSGFSSTTYGVHWVRQPPGKALEWLGVIWAGGSTNYNAALMSRLTISKDTSKSQVVLTMTNMDPVDTATYYCATQYHYPFAYWGQGTLVTVSS VL: DIQMTQSPSSLSASVGDRVTITCKASENVGIYVSWYQQKPGKAPKLMIYGASNRNTGVPSRFSGSGSGTDFTLTISSLQPEDFATYYCGQSYSYPLTFGGGTKVEIK
~0.02 µg/mL | Hu1A-7H10 VH1/VL2 (antibody, V domains shown, Humanized antibody) VH: QVTLKESGPVLVKPTETLTLTCTVSGFSSTTYGVHWVRQPPGKALEWLGVIWAGGSTNYNAALMSRLTISKDTSKSQVVLTMTNMDPVDTATYYCATQYHYPFAYWGQGTLVTVSS VL: DIQMTQSPSSLSASVGDRVTITCKASENVGIYVSWYQQKPGKAPKLMIYGASNRNTGVPSRFSGSGSATDFTLTISSLQPEDFATYYCGQSYSYPLTFGGGTKVEIK
~0.02 µg/mL | Hu1A-7H10 VH2/VL2 (antibody, V domains shown, Humanized antibody) VH: QVTLKESGPVLVKPTETLTLTCTVSGFSSTTYGVHWVRQPPGKALEWLGVIWAGGSTNYNAALMSRLTISKDNSKSQVVLTMTNMDPVDTATYYCATQYHYPFAYWGQGTLVTVSS VL: DIQMTQSPSSLSASVGDRVTITCKASENVGIYVSWYQQKPGKAPKLMIYGASNRNTGVPSRFSGSGSATDFTLTISSLQPEDFATYYCGQSYSYPLTFGGGTKVEIK
~0.02 µg/mL | Hu1A-7H10 VH2/VL1 (antibody, V domains shown, Humanized antibody) VH: QVTLKESGPVLVKPTETLTLTCTVSGFSSTTYGVHWVRQPPGKALEWLGVIWAGGSTNYNAALMSRLTISKDNSKSQVVLTMTNMDPVDTATYYCATQYHYPFAYWGQGTLVTVSS VL: DIQMTQSPSSLSASVGDRVTITCKASENVGIYVSWYQQKPGKAPKLMIYGASNRNTGVPSRFSGSGSGTDFTLTISSLQPEDFATYYCGQSYSYPLTFGGGTKVEIK
~0.02 µg/mL | mh1A-7H10_VH1/VL (antibody, V domains shown) VH: QVQLKESGPVLVAPSQSLSITCSVSGFSSTTYGVHWVRQPPGQGLEWLGVIWAGGSTNYNAALMSRLSISKDNSKSQVFLKMNSLQTDDTAMYYCATQYHYPFAYWGQGTLVTVSA VL: NIVMTQSPKSMSMSVGERVTLSCKASENVGIYVSWYQQKPEQSPKLMIYGASNRNTGVPDRFTGSGSATDFTLTISSVQAEDLADYYCGQSYSYPLTFGAGTKLELK

The binders below were run against T1, human CXCL1 protein (assay: antigen-immobilized ELISA, HuCXCL1 on the plate, absorbance (lower left panel)).

EC50 (read off the curve) | Binder
~0.02 µg/mL | mh5A-5E11_VH7/VL (antibody, V domains shown) VH: QVQLQQSGAELVRPGSSVKISCKASGYAFSDYWMNWVKQRPGQGLEWIGQIYPGSGDTNYNAKFKGKGTLTADKSSSTAYMQLNSLTSEDSAVYFCARERDYDVAMDYWGQGTSVTVSS VL: DIQMTQSPSSLSASLGGKVTITCKASQDINKYIAWFQHKPGKGPRLVIHYTSILQPGIPSRFSGVGSGRDYSFSIRNLEPEDIATYYCLQYDNLPWTFGGGTKLEIK
